Assay results as given in article PMC10022642, “Abscisic acid promotes auxin biosynthesis to inhibit primary root elongation in rice”.

Columns and labels:
GST-OsbZIP46 [1] = biological target: T1, GST-OsbZIP46 (Oryza sativa, UniProt Q69TW5 1-324); assay: EMSA; LightShift Chemiluminescent EMSA kit, 20 min at room temperature, 5% native polyacrylamide gel; buffer, salt and pH not stated; conditions: protein: recombinant; tags: GST (N-terminal, pGEX-6p-1); chain copies: 2
T1 sequence: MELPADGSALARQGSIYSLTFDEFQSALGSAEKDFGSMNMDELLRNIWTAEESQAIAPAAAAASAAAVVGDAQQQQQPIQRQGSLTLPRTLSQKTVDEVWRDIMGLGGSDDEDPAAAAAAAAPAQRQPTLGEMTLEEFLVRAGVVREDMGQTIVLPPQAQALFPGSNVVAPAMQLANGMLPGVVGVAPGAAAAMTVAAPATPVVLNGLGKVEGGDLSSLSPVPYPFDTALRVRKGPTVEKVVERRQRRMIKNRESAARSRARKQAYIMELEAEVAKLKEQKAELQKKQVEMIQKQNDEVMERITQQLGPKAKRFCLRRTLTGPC

GST-OsbZIP46 [2] = biological target: T1, GST-OsbZIP46; assay: EMSA; labeled mutant probe; LightShift Chemiluminescent EMSA kit, 20 min at room temperature, 5% native polyacrylamide gel; buffer, salt and pH not stated; conditions: protein: recombinant; tags: GST (N-terminal, pGEX-6p-1); chain copies: 2; label: 3' biotin

B1: YUC8-Probe (YUC8/REIN7 promoter, P3 G-box) (dsDNA)
DNA 1: GTTGGAAAGCGTATTTTATTCGCAACGTGCGGTTCTTCCAGTTTCTCGGC
DNA 2: GCCGAGAAACTGGAAGAACCGCACGTTGCGAATAAAATACGCTTTCCAAC
GST-OsbZIP46 [1]
  binding result: binds

B2: YUC8-Mutant Probe (dsDNA)
DNA 1: GTTGGAAAGCGTATTTTATTCGCAAAAAACGGTTCTTCCAGTTTCTCGGC
DNA 2: GCCGAGAAACTGGAAGAACCGTTTTTTGCGAATAAAATACGCTTTCCAAC
GST-OsbZIP46 [2]
  binding result: no binding
